The NTF2 design screens of Basanta et al. (2020)

Assay: protease stability score; higher = more stable; yeast display proteolysis, trypsin and chymotrypsin;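 further: relative to predicted unfolded state with 0 unfolded-like and 1 meaning tenfold more protease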

Sequence | protease stability score
DELTEELRHLAHLMIVSLLTGDPSVFQRYLDPNTKSVVNGKNIHGMEEFDKIILEELKRVDHLEIELKRIDAFDGVTHIDGKLKLRIGDKTVETRMEVNIFTINGKVKSIEISRQ | 1.33
NDLERDAEHMLKLLIEAHLTGNEDIFEEFMDPNTRLVVGDKDNHGREFAEDYFKEWRVKHVRLKHYRSIGNYVEFDTETNVHVNGRDIRTETKITIVKIDGRWLLKVLIFG | 1.72
SDLNQVFRESLEHHLHALETGDWRELYRLADPNVLVIVGDKEIHGMEEWSRILEEEMRRVKGMRIEINPTDIDFQGNKVRAHTRLHVEVDGRSVETDTEHESKKVNGRWILKRLTIR | 1.16
DEEDRFAEEYIRLLHEIIKTGDWHQLKRMVDPNARWDVNGVDVIGMEEYVRVWKDEIDRFKGLRLHPRIRHVDFINGRIHVHSEKKVEYGDKEETFETKRHIFLFNGVDTHFSIRID | 0.278
SESEEEARRKSEVFLRHLRTGDFREFIKLADPHVLNIFPGVNHVGREHWRRLELHLRRREFRVHDERLDIQGDKVRINIDLETDVEFDGKELKFRTLILIEAEKVDGRWRVTEVSEEPR | 0.524
SEEDEMIEELMRTIIRLFHTGDWEKKAKLMDPNTRSVIGDKHAHGREEIVRLFLEYWRELGIDHISIHDVKLQGDKVIVNGKLRVGEKTIDVRIHYVVVNGRLKSERFEEE | 0.327
DEERELYKRHWDRLNRAIHTGDEEEVRRLADPDYKIRIGDKTLHGREDIKKFLEHIRISVESFEIKDMHDIDGVIEVDGKVELRLVVDGRTFRIETRVVYYILKVNGRWLMHSEIYH | 0.82
DEEEAHTRHILELFKHNYHTGDEDLFRRLLDPNVRLHIDGVNIHGREEVVEVLVKLAHEIRVELRVKHIRIINGVAEVDIELTIHQGDKHESRKIHLFILKVNGRWRVESIQWR | 1.42
TEEHHFAERVVREWLKLYYTGDEERNETLADPNVKLDVNGRHYHGRESVSEFLREVYEHWRIREFHIHEFDVFNGVSHVDGELILEINGQKHRYRVRIIIVVINGRLKHIELNQV | 1.56
SEHDEHLQRNWERFLHHIETGDWRDHEENADPHARVHIGEFDLHGREKFSELFMRLGVKHIEIQRLIVQGDKITADTVVHYGDKRLKTNIFVTKINGRWQLHSIEMR | 1.42
TERREVVEQLLRHFFQSTITGDWRDLEHYIDPNARNIVNGKITHGREAITEYYMRFDYFHVDDIIIRERDVIDGQAHLRVEIHGQIEINGRKNRFETHVEIIILKVDGRWVWRSFDIR | 1.33
SELEEEVRRAVTFWLEALMTGDEESVSHMLDPNVRVDIDGRDLHGREKMIETMKHIRIKHIELTSIKVINGRAHIHTKVDGEFNGRRDTLDVEIIITKINGKWVVKEVNVK | 1.7
SEEKEIAERIVRELLYAYHTGDEQLFNHLADPHVRIHIGEFHKVGREHWEELHRWLDNHLRIHRFFFRDVEVQGEKVHIHVRTNTIIGDKRIDTNLLFFILVVNGKIKHMEVREI | 1.81
DHKDELAHRLVEHILKLLLTGDEEHWYELLDPNVRIHINGRNSVGREEALKVIQFFWELLGVKHIELKEVRFQGDKVHSDTRLDINGVKSRVRIEVIIINGRIDEVRIDIR | 2.25
DESEKSAFRFFEEMTKVLSTGDEETFLKMLDPNTRLEVGDKERHGREDFIRLMRHLWEVLGADHVHIHVKDIKVVNGRADIDTDLIIYVNGKTIHRDTQIIVLKIDGRWVLTSMEVE | 2.02
DHDDERVEHFARHWVHNFLTGDWKKLTDQVDPHVRLDVNGQKFHGREAIREWLEHILREIRVHDLKFDHIHLQGDYTIIEGTQIIHYNGRTEIRKTRIEFIIVDGKFQEIRIKTL | 1.43
DERREQTRHWINMFTHAMRTGDEHTFKELLDPHVRVKDEHEEDHGRDKAVELFSRVDVFHDIKLRDIDVQGNYVTIEVELLGEIDGKRTTHDLHIITYKINGRWILKSVSIR | 1.06
DEDDEFERLFWKKWVDALRTGNEEIIRKMVDPNVKIVFNGKELHGREAVDIVLKRIDHIDDIKLRHSRVVDGRVEITTKIHMKVGDKSIDSETHMSFEKIDGRWIITEMFFV | 2.59
DEEHRDLEHFMEIYEDALRTGDEKIIKFLLDPHVRFKQGNKQEHGWEAVYRYLHRFDVVKDVRFRIRSLEIQGDFLIVHYEVRYRGEINGQEHHVTIEYVIIVKKIDGKWLVHEVSIL | 1.62
SEEEHMLEAFFEDVLQLVMTGDEHRLKHLFDPNVRVETEHEHFHGRELFLQRMLEIRIHDFHIHDFEVQGDKAHVDGRVEGTIDGRTNHWTFTLILEKIDGRWLANKVTWH | 1.55
TELDEQVTEVFKINERLKQTGDWKKIIDYVDPHARVEIGEFRDHGRDAAEFTMKYLGIDHFELKRVHLQGNKLHIHGELTVDGRLIHLIIISEKVDGRWITKSMTVD | 0.01
SEEEESSHNAIKIWMETMETGNEELYLRLLDPHTRLDVNGKEFIGREVLKMFKKQIDHVKDVDVEHVEVQGDKVILNGRVRGDINGVERNTIEHLIVRKIDGRWRITEFSIR | 0.94
DEHEELMRRLMQLWMENWLTGDEDVLYKLADPNAKWDINGVKLHGREKMNEDRKEILERHGATFYLEIRDFTVINGRAHVDGHEDYIINGKRIRTDVQIILVIVNGKFKSEEVKIR | 0.292
EEEEKEIKDLLREIFEMIVTGDWRLIRENMDPNARMEVGDKEVHGRDHVIHHLHNLGFKHIKEKDINVQGEKISIHGHVDVNGRSRHVDFIAHKVNGKWLYKSFHFH | 0.826
SEEEEETEEVADLHLETLKTGNEDLLEDLLDPNVRVIVNGKHHIGRHFLLKWVTEFGIKHFELKRREIDIQGEKADIHIQGNMYFNGRTVRAHIHQEVTKFDGRWFNHRVEIEFK | 1.84

Sequence | protease stability score
SEEEKEAHDWMEVWLELFHTGDEDMLEHMADPHTRIHVDGRKFHGRENYVRLVRHMRVHHFIERRVRIINGRIHIEGEARVNINGQEIDNHVQIHLNLVDGRLKTEHIKVK | 0.927
DENHEIVKRALEIIVVALLTGDFDTLTELFDPEVRIQVGDKHLHGREDFWKWLKELITRADHNDFKVESIEVQGDKMVIDGEMIIHYNGREHRYKTEVIILKIDGRWVVKRIHYE | 1.65
SETEHYSQKLLDLIVKAMRTGDEEMFERLLDPNTRELVDGQELHGREEWHHLWHRIDHLRIDHSEISHVNPIGEFIVVHMRVRMTLHINGKIHHYETEVIIIILKIDGRWLMHEVRFH | 0.647
DEDKESLTRFWRMWVELNQTGDEDSLLKMFDPHVKIDINGRDLHGRELFAEEHKKFREEMGIDHFEFEIHRFEVQGDKANLDAKVTIRIGDKFHQLDLHIILHKVNGRWVLHSVKIR | 1.22
DHEKEVAERIMRLLFHQLETGDWRLESKMADPNVRLNFNGVHLHGMETSVKWLEELRIHSFRIRDMRIDIINGVAVADNDTETEITFDGVRIRTRTHLHIFVSKFDGRWHVSEIEIRIR | 0.094
SEEKKFLEKAHREILHLYKTGDEDRMSELADPDVRMRLVINGQERHHHGREEFERVFREMLDRFGVKHVEDEDSDLVNGQVHIKGTERFNGKEVRFNIIIVWVDGRVHMLSVEYR | 0.264
DEFEKDFRFAIEEWLKVVRTGDEDRAHELMDPDVKLDIGDKRHHGREEMLHHVRRADVIHDYKIKDLKFQGNYITVQGEVDGQIGDKRIRTEVRVIILKIDGVWLWRQNYER | 0.907
DEDEEFWKELLRLFNEALITGDEDLLSHYADPNTRIRDENHKIHGRERYSRLMVKLGIDHVHLHSFTIIDGVAHIHLEWHQGDKTLDVRSYSRKFNGRWFLTHVRIK | 1.05
SESEEDFRWFMHVLLKTFLTGDEDEFDSLIDPNVRLIVNGKDTHGWEVAVKFVRRFDHLDLYVRESEIQGDKVESDTELIVNFNGVSIKHKTRVIAEKVNGRWILREMRIG | 1.44
SELDEDSEEAVREDIETIKTGNEEMFKRLVDPNARTDFNGKELVGREAVLHFWTMILKTMGVDHVHIEEVRIFNGRLIMHHTIHVGDKFIEVILFSEKFNGKWQIKEIEIR | 0.053
DEHQERNRRALEEMNRILDTGDWEELTELADPHVRIHYGEFNLHGREDAHRFWKHIVERFKGIRVNIHDVKMVGNYVDVDGHLEIGDKEHKVRIIAFKINGRWLLHSMHFV | 1.38
REEDEIAENLFRLWIKSFLTGDFNTLRKLMDPHVRIHINGQEIHGREDFVRLLWEEFRRLGAKFHIEIKHLDVQGDKVFSEGTLRIEQGNKKDSKSVLIELIVVDGVITEIRMDVR | 2.25
DEHEELIMEFLRRLLEWHLTGDEEYISRNFDPNTQFDILIGDKRYHIHGREEIHEWLHEFLRELRVHIIVHEMRAQGDKAHNRGTLNLTYGDKRRTVDVHIFIVVVNGRYKKIIVQVK | 1.62
SHDEEWARRFFEDFVRAILTGDEEHLFKNVDPNVRVEIGDKELHGREDFHQHLHEIRIKRFEVHDLTLQGEKVEEDIEMDGQVNGQRFRTRQRVVVDWVNGRFHHLKIEWE | 0.715
DEEEKDVQKILKIMIESMKTGDEHTIERLVDPHVRLIINGKRLHGWELFVKIVHHEAEHARVDEIRIDHMHVIDGRAHLYLTIKRTVGDKHIKLDLEFIWSKFDGRWHVEEERRE | 1.14
SEQEERETRFMEKAWDLLRTGDEHLLERLADPNARLEIDGRKKHGRETIIEYFRHVKEHLGFKHIELHHMHLVDGVLHIDGIFRYGDKTHRTEIVYYVVNGRLERIEIIIL | 1.22
SDDEREDRIAIDILLRSTETGDEDTVRHMFDPNARVDVDGREIHGRDASKLFMERVDHIHEVKIDDIKTINGRVHNEGTWYGEYGDKKSELKVHWVLLKIDGRWLIKEVRIR | 1.57
DDTDRRSRILTELSLNLFRTGDWKLFEEMADPHARMSMDVDGKELRHHGRESVSHVWHRQLFELGVDHYDLHDVKVIDGVMHVFSEVKVGDKRLELLIVAEKVNGKWHIREVHIKII | 0.202
DEEHHDARRIIEEFITLLKTGDEENLDEYLDPNVRIEFNGRDLHGMEWFLHFLREIRFRDDDHKRIQVKVINGQVHILIKMHVDGVWDGRRKISDVHLHFTVVKVDGRWRFTSIHVHIE | 1.35
GEDKELARKAVEEELESLLTGDEDRLKELIDPHTKVFINGREEIGMEALEDVLKKLGFKHIKVHHFDIRVQGDKVKNDLRGIFHVNGKDIDTQLIIISLKYNGQWFNHSLEWRTR | 0.595
DERHEHTHELMRLLIEAFVTGDERLSEELADPHTRLHVNGVHNWGRERFVEVVRRLWSQVKNAKWTLRDFHVQGDKNEVVGDVHVDGQTIHVRFIFFVFNGRLESEEIRVH | 2.4
TEEEKLARFAWHLRLHAEETGNEELIETLMDPNVKIDIDINGREIHMIGREEYIRWFNEYGFKHVEHVDEREMRVQGDYLDIRGRVIFHVNGQRIDTETQHHILVVDGRIKEIHDIYH | 1.69
REEESEWKKFFEDLLRSLVTGDESSLSKMIDPHARLDVDGREFHGREHMAHWIVRTLNEHGITIKIEIKDFRLVGDKVHVDGHEDIEVGDKRHERRLHIILLKFNGRWVIKELKVE | 2.67
DDEDREAQELLNLYLHAHRTGDEHLLDELVDPHARIIVNGQEIHGRDFLEYLKKFWGITNVNIDIHIDDLKLYDGRIEVETRLILEINGQRYTYSSHEHWHKVNGKWISKRVDFE | 1.05
DDREEDLHKALHLFRMTMLTGNEDLFRDLADPHTRVSVNGQELIGREHMEHWWKRVDHIEDSRLERVDIVDGVVLVDGRFVGTVNGRRIDTEYTIFAQKVNGQWILHSVKIV | 1.19
